Reference: article PMC8880771, “Therapeutic antibody activation of the glucocorticoid-induced TNF receptor by a clustering mechanism” (Science Advances, 2022)

B1: full-length mouse GITR fused to EGFP at its C terminus (mGITR_(egfp)), purified (receptor, UniProt O35714 20-228, looked up)
chain: QPSVVEEPGCGPGKVQNGSGNNTRCCSLYAPGKEDCPKERCICVTPEYHCGDPQCKICKHYPCQPGQRVESQGDIVFGFRCVACAMGTFSAGRDGHCRLWTNCSQFGFLTMFPGNKTHNAVCIPEPLPTEQYGHLTVIFLVMAACIFFLTTVQLGLHIWQLRRQHMCPRETQPFAEVQLSAEDACSFQFPEEERGEQTEEKCHLGGRWP
modifications: intersubunit disulfide bond at Cys55
notes: signal peptide in the construct; mouse GITR, full-length gene in pEZT-BM, followed by a thrombin cleavage site, EGFP and 8x His; Cys14 lies in the predicted signal peptide and is not in the mature protein; last residue P228; Disulfide-linked dimer by cryo-EM; EGFP fluorescence was monitored in FSEC; also called glucocorticoid-induced TNF receptor; source: HEK293S GnTI- suspension cells (BacMam), …

Columns and labels:
[1] = target: B1; test: SEC; FSEC of purified proteins mixed with mGITR_(egfp), EGFP fluorescence (tryptophan fluorescence as control), Superose 6 Increase 10/300 GL, 20 mM tris pH 8.0, 300 mM NaCl, 0.5 mM DDM; molar ratio 1:15:4:2 for mGITR_(egfp):mGITRL:Fab:IgG; details: both partners purified
[2] = target: the molecule itself; test: non-reducing SDS-PAGE with anti-1D4 Western blot; lysate, nonreduced (-DTT); denaturing SDS-PAGE, shows only covalent dimers
[3] = target: the molecule itself; test: cryo-EM structure; mGITR_(egfp)/DTA-1 Fab complex in DDM, single-particle cryo-EM, global resolution 4.4 Å

| Binder | stoichiometry N [2] | other results |
| --- | --- | --- |
| full-length mouse GITR ligand (mGITRL) (ligand, UniProt Q7TS55 1-173, looked up, mouse GITRL, full-length gene with transmembrane region, in pEZT-BM; the oligomeric state of the full-length protein was not measured here; source: HEK293S GnTI- suspension cells (BacMam), solubilized in DDM, purified (StrepTrap HP, Superose 6)) MEEMPLRESSPQRAERCKKSWLLCIVALLLMLLCSLGTLIYTSLKPTAIESCMVKFELSSSKWHMTSPKPHCVNTTSDGKLKILQSGTYLIYGQVIPVDKKYIKDNAPFVVQIYKKNDVLQTLMNDFQILPIGGVYELHAGDNIYLKFNSKDHIQKTNTYWGIILMPDLPFIS | – | binding result [1]: binds |
| mGITR_(ΔCTD-egfp) (domain or fragment, mouse, UniProt O35714 20-185, looked up, signal peptide in the construct; mouse GITR without the unstructured C-terminal residues C186-P228; also called CTD deletion construct; source: HEK293 cells, solubilized with DDM, in lysate; not shown: EGFP, C-terminal, kept; 1D4, C-terminal, kept) QPSVVEEPGCGPGKVQNGSGNNTRCCSLYAPGKEDCPKERCICVTPEYHCGDPQCKICKHYPCQPGQRVESQGDIVFGFRCVACAMGTFSAGRDGHCRLWTNCSQFGFLTMFPGNKTHNAVCIPEPLPTEQYGHLTVIFLVMAACIFFLTTVQLGLHIWQLRRQHM | 2 | – |
| mGITR_(ΔCTD-egfp)-C164A (domain or fragment, mouse, UniProt O35714 20-185, looked up, signal peptide in the construct; mouse GITR without the C-terminal residues C186-P228, with C164A; also called C164A mutant; source: HEK293 cells, solubilized with DDM, in lysate; not shown: EGFP, C-terminal, kept; 1D4, C-terminal, kept) QPSVVEEPGCGPGKVQNGSGNNTRCCSLYAPGKEDCPKERCICVTPEYHCGDPQCKICKHYPCQPGQRVESQGDIVFGFRCVACAMGTFSAGRDGHCRLWTNCSQFGFLTMFPGNKTHNAVCIPEPLPTEQYGHLTVIFLVMAAAIFFLTTVQLGLHIWQLRRQHM | 2 | – |
| B1 | – | stoichiometry N [3]: 2 |
| full-length mGITR_(egfp) with C-terminal 1D4 tag, in HEK293 lysate (receptor, mouse, UniProt O35714 20-228, looked up, intersubunit disulfide bond at Cys55, signal peptide in the construct; mouse GITR, full length (to P228), followed by EGFP and a 1D4 tag; May be the same construct as m1; the methods name an 8x His tag for the purified protein, the results a 1D4 tag for all constructs analysed in lysate; source: HEK293 cells, solubilized with DDM, in lysate; not shown: EGFP, C-terminal, kept; 1D4, C-terminal, kept) QPSVVEEPGCGPGKVQNGSGNNTRCCSLYAPGKEDCPKERCICVTPEYHCGDPQCKICKHYPCQPGQRVESQGDIVFGFRCVACAMGTFSAGRDGHCRLWTNCSQFGFLTMFPGNKTHNAVCIPEPLPTEQYGHLTVIFLVMAACIFFLTTVQLGLHIWQLRRQHMCPRETQPFAEVQLSAEDACSFQFPEEERGEQTEEKCHLGGRWP | 2 | – |
